Source: patent US6660836

Legend:
[1] = biological target: Gαq-glutathione S-transferase fusion protein; assay: hydroxyl radical alkyl 1H/2H exchange footprinting normalised to internal reference 2,4-DNP-Leu; 30 µM GST-Gaq/15.6 µM CTP, 400 µM OH radical
[2] = biological target: Gαq-glutathione S-transferase fusion protein; assay: hydroxyl radical alkyl 1H/2H exchange footprinting, LC-MS of DNS-amino acids; 50 µM GST-Gaq/100 µM CTP, 200 µM OH radical
[3] = biological target: Gαq-glutathione S-transferase fusion protein; assay: hydroxyl radical alkyl 1H/2H exchange footprinting normalised to internal reference 2,4-DNP-Leu; 50 µM GST-Gaq/100 µM CTP, 200 µM OH radical
[4] = biological target: Gαq-glutathione S-transferase fusion protein; assay: hydroxyl radical alkyl 1H/2H exchange footprinting, LC-MS of DNS-amino acids; 30 µM GST-Gaq/15.6 µM CTP, 400 µM OH radical
[5] = biological target: Gαq-glutathione S-transferase fusion protein; assay: hydroxyl radical alkyl 1H/2H exchange footprinting normalised to internal reference 2,4-DNP-Leu; 50 µM GST-Gaq/100 µM CTP, 400 µM OH radical
[6] = biological target: Gαq-glutathione S-transferase fusion protein; assay: hydroxyl radical alkyl 1H/2H exchange footprinting, LC-MS of DNS-amino acids; 50 µM GST-Gaq/100 µM CTP, 400 µM OH radical

SNEQKACKVLGI [C-terminal peptide (…) of the third intracellular loop of the 5-hydroxytryptamine2A receptor]
Protection Factor (residue Ala) [1]: 0.24 | Protection Factor (residue Asp) [1]: 0.16 | Protection Factor (residue Glu) [1]: 0.37 | Protection Factor (residue Gly) [1]: 0.3 | Protection Factor (residue Ile) [1]: 0.41 | Protection Factor (residue Leu) [1]: 0.39 | Protection Factor (residue Lys) [1]: 0.39 | Protection Factor (residue Ser) [1]: -0.35 | Protection Factor (residue Val) [1]: 0.38 | Δ Isotope Ratio free/Δ Isotope Ratio bound (residue Ala) [2]: 4.5 | Δ Isotope Ratio free/Δ Isotope Ratio bound (residue Asp) [2]: -2 | Δ Isotope Ratio free/Δ Isotope Ratio bound (residue Glu) [2]: 1.8 | Δ Isotope Ratio free/Δ Isotope Ratio bound (residue Gly) [2]: 1.2 | Δ Isotope Ratio free/Δ Isotope Ratio bound (residue Ile) [2]: 2.5 | Δ Isotope Ratio free/Δ Isotope Ratio bound (residue Leu) [2]: 2.3 | Δ Isotope Ratio free/Δ Isotope Ratio bound (residue Lys, diDNS-Lys derivative) [2]: 2.4 | Δ Isotope Ratio free/Δ Isotope Ratio bound (residue Ser) [2]: 0 | Δ Isotope Ratio free/Δ Isotope Ratio bound (residue Val) [2]: 2.4 | Protection Factor (residue Ala) [3]: 2 | Protection Factor (residue Asp) [3]: -0.77 | Protection Factor (residue Glu) [3]: 0.51 | Protection Factor (residue Gly) [3]: 0.32 | Protection Factor (residue Ile) [3]: 0.62 | Protection Factor (residue Leu) [3]: 0.59 | Protection Factor (residue Lys) [3]: 0.58 | Protection Factor (residue Ser) [3]: 0 | Protection Factor (residue Val) [3]: 0.61 | Δ Isotope Ratio free/Δ Isotope Ratio bound (residue Ala) [4]: 0.8 | Δ Isotope Ratio free/Δ Isotope Ratio bound (residue Asp) [4]: 0.53 | Δ Isotope Ratio free/Δ Isotope Ratio bound (residue Glu) [4]: 1.2 | Δ Isotope Ratio free/Δ Isotope Ratio bound (residue Gly) [4]: 0.99 | Δ Isotope Ratio free/Δ Isotope Ratio bound (residue Ile) [4]: 1.4 | Δ Isotope Ratio free/Δ Isotope Ratio bound (residue Leu) [4]: 1.3 | Δ Isotope Ratio free/Δ Isotope Ratio bound (residue Lys, diDNS-Lys derivative) [4]: 1.3 | Δ Isotope Ratio free/Δ Isotope Ratio bound (residue Ser) [4]: -1.2 | Δ Isotope Ratio free/Δ Isotope Ratio bound (residue Val) [4]: 1.3 | Protection Factor (residue Ala) [5]: 7.2 | Protection Factor (residue Asp) [5]: -1.5 | Protection Factor (residue Glu) [5]: 6.3 | Protection Factor (residue Gly) [5]: 0 | Protection Factor (residue Ile) [5]: 2.2 | Protection Factor (residue Leu) [5]: 2.4 | Protection Factor (residue Lys) [5]: 2.3 | Protection Factor (residue Ser) [5]: 0 | Protection Factor (residue Val) [5]: 2 | Δ Isotope Ratio free/Δ Isotope Ratio bound (residue Ala) [6]: 6.3 | Δ Isotope Ratio free/Δ Isotope Ratio bound (residue Asp) [6]: -2.5 | Δ Isotope Ratio free/Δ Isotope Ratio bound (residue Glu) [6]: 6.5 | Δ Isotope Ratio free/Δ Isotope Ratio bound (residue Gly) [6]: 0.5 | Δ Isotope Ratio free/Δ Isotope Ratio bound (residue Ile) [6]: 2.9 | Δ Isotope Ratio free/Δ Isotope Ratio bound (residue Leu) [6]: 3.1 | Δ Isotope Ratio free/Δ Isotope Ratio bound (residue Lys, diDNS-Lys derivative) [6]: 3.1 | Δ Isotope Ratio free/Δ Isotope Ratio bound (residue Ser) [6]: 0 | Δ Isotope Ratio free/Δ Isotope Ratio bound (residue Val) [6]: 2.7
